Results: paper PMC7316778 (Nature Communications, 2020)

Tests used:
FES^WT [1] = molecular target: T1, FES^WT (Homo sapiens, UniProt P07332); experiment: In vitro TR-FRET kinase assay; assay type: biochemical; settings: TR-FRET assay, 5 µM ATP; n = 3
T1 construct: human FES cDNA encoding residues 448–822 or human FER cDNA encoding residues 448–820 was amplified by PCR; made in house; host or cells: E. coli BL21(DE3), co-expressing YopH phosphatase
Description: All measurements were performed in triplicate.

FES^S700C = FES^S700C (Homo sapiens, UniProt P07332, S700C); experiment: In vitro TR-FRET kinase assay; assay type: biochemical; set-up: human FES cDNA encoding residues 448–822 or human FER cDNA encoding residues 448–820 was amplified by PCR; made in house; host or cells: E. coli BL21(DE3), co-expressing YopH phosphatase
SYK = SYK (Homo sapiens, UniProt P43405); experiment: PamChip microarray peptide phosphorylation; settings: peptide substrate phosphorylated by SYK
FES^WT [2] = molecular target: T1, FES^WT; experiment: PamChip microarray peptide phosphorylation; assay type: biochemical; settings: peptide substrate phosphorylated by FES - WT
LYN = LYN (Homo sapiens, UniProt P07948); experiment: PamChip microarray peptide phosphorylation; settings: peptide substrate phosphorylated by LYN
ABL1 = ABL1 (Homo sapiens, UniProt P00519); experiment: PamChip microarray peptide phosphorylation; settings: peptide substrate phosphorylated by ABL1
CSK = CSK (Homo sapiens, UniProt P41240); experiment: PamChip microarray peptide phosphorylation; settings: peptide substrate phosphorylated by CSK
FGR = FGR (Homo sapiens, UniProt P09769); experiment: PamChip microarray peptide phosphorylation; settings: peptide substrate phosphorylated by FGR

Chain of LYN (P07948 whole entry): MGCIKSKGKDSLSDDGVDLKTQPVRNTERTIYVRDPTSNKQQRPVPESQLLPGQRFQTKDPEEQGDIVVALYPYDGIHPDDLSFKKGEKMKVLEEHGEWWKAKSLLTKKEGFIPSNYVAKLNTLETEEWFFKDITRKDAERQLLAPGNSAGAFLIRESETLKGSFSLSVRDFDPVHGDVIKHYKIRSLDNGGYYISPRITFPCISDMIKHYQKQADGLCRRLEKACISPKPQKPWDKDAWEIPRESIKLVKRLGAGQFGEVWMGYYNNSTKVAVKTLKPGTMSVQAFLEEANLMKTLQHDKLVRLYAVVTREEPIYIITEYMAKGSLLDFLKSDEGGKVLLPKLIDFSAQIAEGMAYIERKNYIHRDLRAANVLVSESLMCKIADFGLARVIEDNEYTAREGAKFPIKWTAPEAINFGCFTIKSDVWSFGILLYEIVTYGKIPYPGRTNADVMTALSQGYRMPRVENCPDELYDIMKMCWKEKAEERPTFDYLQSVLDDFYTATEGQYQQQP
Chain of ABL1 (P00519 whole entry): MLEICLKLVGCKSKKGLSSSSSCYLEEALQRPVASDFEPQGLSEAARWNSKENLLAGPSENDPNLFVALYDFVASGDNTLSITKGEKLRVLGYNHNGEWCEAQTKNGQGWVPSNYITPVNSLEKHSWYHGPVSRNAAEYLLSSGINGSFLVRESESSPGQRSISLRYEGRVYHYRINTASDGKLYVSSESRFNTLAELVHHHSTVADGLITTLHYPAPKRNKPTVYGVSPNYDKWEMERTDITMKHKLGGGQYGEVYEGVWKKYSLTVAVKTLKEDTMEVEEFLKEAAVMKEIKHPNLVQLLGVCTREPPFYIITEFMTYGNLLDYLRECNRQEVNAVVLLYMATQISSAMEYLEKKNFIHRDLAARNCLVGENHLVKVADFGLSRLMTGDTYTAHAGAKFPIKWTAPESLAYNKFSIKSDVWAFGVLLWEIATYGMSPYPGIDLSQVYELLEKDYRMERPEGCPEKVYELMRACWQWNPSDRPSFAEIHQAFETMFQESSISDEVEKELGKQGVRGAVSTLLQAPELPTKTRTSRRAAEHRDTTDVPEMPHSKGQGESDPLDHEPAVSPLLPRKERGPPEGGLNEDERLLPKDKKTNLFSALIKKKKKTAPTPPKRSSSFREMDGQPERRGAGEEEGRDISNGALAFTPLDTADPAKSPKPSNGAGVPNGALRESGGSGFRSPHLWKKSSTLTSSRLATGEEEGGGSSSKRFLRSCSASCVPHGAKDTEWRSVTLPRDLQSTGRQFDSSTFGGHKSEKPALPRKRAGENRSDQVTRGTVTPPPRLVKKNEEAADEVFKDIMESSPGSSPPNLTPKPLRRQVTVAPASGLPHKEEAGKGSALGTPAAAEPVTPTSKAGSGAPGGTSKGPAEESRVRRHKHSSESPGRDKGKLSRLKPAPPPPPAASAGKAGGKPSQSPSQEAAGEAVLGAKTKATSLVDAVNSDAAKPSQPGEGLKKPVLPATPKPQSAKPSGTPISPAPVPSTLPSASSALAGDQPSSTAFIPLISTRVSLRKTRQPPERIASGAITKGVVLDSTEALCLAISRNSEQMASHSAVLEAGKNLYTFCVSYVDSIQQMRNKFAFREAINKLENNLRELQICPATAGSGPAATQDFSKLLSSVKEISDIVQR
Chain of CSK (P41240 whole entry): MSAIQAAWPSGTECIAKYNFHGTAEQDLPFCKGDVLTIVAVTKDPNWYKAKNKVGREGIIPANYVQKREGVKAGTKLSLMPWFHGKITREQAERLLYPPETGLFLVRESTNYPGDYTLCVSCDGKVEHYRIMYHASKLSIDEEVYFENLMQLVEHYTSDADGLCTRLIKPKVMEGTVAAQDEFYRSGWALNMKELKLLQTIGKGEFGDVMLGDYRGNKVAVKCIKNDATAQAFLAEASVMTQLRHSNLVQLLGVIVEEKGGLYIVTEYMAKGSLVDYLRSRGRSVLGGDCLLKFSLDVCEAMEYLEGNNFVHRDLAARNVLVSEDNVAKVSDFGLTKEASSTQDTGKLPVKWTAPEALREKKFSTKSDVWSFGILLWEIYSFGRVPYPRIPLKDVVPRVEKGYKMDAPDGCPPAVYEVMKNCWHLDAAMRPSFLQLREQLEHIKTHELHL
T1 sequence (P07332 448-822): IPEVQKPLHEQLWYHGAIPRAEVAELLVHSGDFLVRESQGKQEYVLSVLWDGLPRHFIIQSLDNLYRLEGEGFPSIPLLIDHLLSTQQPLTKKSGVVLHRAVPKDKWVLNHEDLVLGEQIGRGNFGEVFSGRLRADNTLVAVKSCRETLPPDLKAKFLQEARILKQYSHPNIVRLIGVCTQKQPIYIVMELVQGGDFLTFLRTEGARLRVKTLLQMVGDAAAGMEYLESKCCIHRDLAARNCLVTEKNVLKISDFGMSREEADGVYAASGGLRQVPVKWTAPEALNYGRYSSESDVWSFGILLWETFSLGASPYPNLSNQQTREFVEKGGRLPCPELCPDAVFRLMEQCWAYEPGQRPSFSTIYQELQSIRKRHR
Chain of FES^S700C (P07332 448-822 S700C): as the sequence (P07332 448-822) above, with S253C counted along it

Row | Compound | pIC50 FES^WT (FES^WT [1]) | Apparent fold selectivity (FES^S700C; IC50 on FES^WT divided by IC50 on FES^S700C) [fold] | pIC50 FES^S700C (FES^S700C; TR-FRET assay, 5 µM ATP, n = 3) | Relative phosphorylation (% of highest signal) (SYK) | Relative phosphorylation (% of highest signal) (FES^WT [2]) | Relative phosphorylation (% of highest signal) (LYN) | Relative phosphorylation (% of highest signal) (ABL1) | Relative phosphorylation (% of highest signal) (CSK) | Relative phosphorylation (% of highest signal) (FGR)
1 | C=CC(=O)Nc1cccc(Nc2nc(Nc3ccccc3OC)ncc2Cl)c1 [Compound 3] | 6.5 ± 0.06 | 0.65 | 6.3 ± 0.06 | – | – | – | – | – | –
2 | STAT4_686_698 (TERGDKGYVPSVF; UniProt Q14765 686-698, looked up, fragment) | – | – | – | -1.2 % of highest signal | -0.247 % of highest signal | -0.165 % of highest signal | -0.7 % of highest signal | -0.9 % of highest signal | -4.1 % of highest signal
3 | MBP_263_275 (GRASDYKSAHKGF; UniProt P02686 263-275, looked up, fragment) | – | – | – | -0.355 % of highest signal | -0.25 % of highest signal | -0.172 % of highest signal | -0.13 % of highest signal | -0.5 % of highest signal | -0.9 % of highest signal
4 | STAT1_694_706 (DGPKGTGYIKTEL; UniProt P42224 694-706, looked up, fragment) | – | – | – | -1.9 % of highest signal | -0.5 % of highest signal | -0.0105 % of highest signal | -0.6 % of highest signal | -1.4 % of highest signal | -3.3 % of highest signal
5 | AMPE_5_17 (EREGSKRYCIQTK; UniProt Q07075 5-17, looked up, fragment) | – | – | – | -1.8 % of highest signal | -0.1 % of highest signal | 0.114 % of highest signal | -0.436 % of highest signal | -0.745 % of highest signal | -1.5 % of highest signal
6 | VGFR2_989_1001 (EEAPEDLYKDFLT; UniProt P35968 989-1001, looked up, fragment) | – | – | – | 15.3 % of highest signal | 10.0 % of highest signal | 2.8 % of highest signal | 2.3 % of highest signal | 30.5 % of highest signal | 21.5 % of highest signal
7 | ZBT16_621_633 (LRTHNGASPYQCT; UniProt Q05516 621-633, looked up, fragment) | – | – | – | -1.0 % of highest signal | 0.657 % of highest signal | -0.2 % of highest signal | -0.119 % of highest signal | -0.468 % of highest signal | 3.8 % of highest signal
8 | VGFR2_1207_1219_C1208S (VSDPKFHYDNTAG; UniProt P35968 1207-1219, looked up, variant C1208S) | – | – | – | -1.4 % of highest signal | 0.5 % of highest signal | -0.213 % of highest signal | -0.742 % of highest signal | -1.4 % of highest signal | -0.6 % of highest signal
9 | VGFR2_1168_1180 (AQQDGKDYIVLPI; UniProt P35968 1168-1180, looked up, fragment) | – | – | – | 2.7 % of highest signal | 6.1 % of highest signal | 0.147 % of highest signal | 0.014 % of highest signal | 0.544 % of highest signal | -1.8 % of highest signal
10 | VGFR2_944_956 (RFRQGKDYVGAIP; UniProt P35968 944-956, looked up, fragment) | – | – | – | 0.9 % of highest signal | 0.741 % of highest signal | -0.364 % of highest signal | -0.378 % of highest signal | -0.8 % of highest signal | -1.0 % of highest signal
11 | DDR1_506_518 (LLLSNPAYRLLLA; UniProt Q08345 506-518, looked up, fragment) | – | – | – | -3.9 % of highest signal | -0.4 % of highest signal | -1.0 % of highest signal | -1.4 % of highest signal | -1.7 % of highest signal | -6.2 % of highest signal
12 | PERI_458_470 (QRSELDKSSAHSY; UniProt P41219 458-470, looked up, fragment) | – | – | – | -1.3 % of highest signal | -0.5 % of highest signal | -0.0931 % of highest signal | -0.4 % of highest signal | -0.632 % of highest signal | -1.2 % of highest signal
13 | VGFR1_1320_1332_C1320K/C1321K (KKSPPPDYNSVVL; UniProt P17948 1320-1332, looked up, variant C1320K C1321K) | – | – | – | 4.3 % of highest signal | 2.0 % of highest signal | -0.28 % of highest signal | -0.0535 % of highest signal | -0.847 % of highest signal | -2.8 % of highest signal
14 | VGFR1_1206_1218 (GSSDDVRYVNAFK; UniProt P17948 1206-1218, looked up, fragment) | – | – | – | -0.354 % of highest signal | -0.0198 % of highest signal | -0.1 % of highest signal | 0.0233 % of highest signal | -0.459 % of highest signal | -1.0 % of highest signal
15 | EPOR_361_373 (SEHAQDTYLVLDK; UniProt P19235 361-373, looked up, fragment) | – | – | – | 12.7 % of highest signal | 3.3 % of highest signal | 1.2 % of highest signal | 0.0544 % of highest signal | 2.0 % of highest signal | 2.0 % of highest signal
